Laboratory results taken from patent US20240317847A1 (Bayer, published 2024).

Key:
human IL-11 [1] = target: T1, human IL-11 (human, UniProt P20809 22-199); assay: cell-based or functional assay
T1 sequence: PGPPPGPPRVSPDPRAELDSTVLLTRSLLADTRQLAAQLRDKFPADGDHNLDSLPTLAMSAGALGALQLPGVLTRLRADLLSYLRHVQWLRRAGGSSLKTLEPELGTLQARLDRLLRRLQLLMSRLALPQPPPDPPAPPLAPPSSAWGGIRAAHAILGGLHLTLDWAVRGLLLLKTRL

murine IL-11 [2] = target: T2, murine IL-11 (mouse, UniProt P47873 22-199); assay: cell-based or functional assay
T2 sequence: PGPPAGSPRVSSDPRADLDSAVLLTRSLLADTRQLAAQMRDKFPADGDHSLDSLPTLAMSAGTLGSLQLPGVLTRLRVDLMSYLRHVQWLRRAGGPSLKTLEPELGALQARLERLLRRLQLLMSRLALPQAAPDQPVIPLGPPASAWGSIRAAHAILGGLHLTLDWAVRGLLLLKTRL

cynomolgus IL-11 [3] = target: T3, cynomolgus IL-11 (cynomolgus, UniProt P20808 22-199); assay: cell-based or functional assay
T3 sequence: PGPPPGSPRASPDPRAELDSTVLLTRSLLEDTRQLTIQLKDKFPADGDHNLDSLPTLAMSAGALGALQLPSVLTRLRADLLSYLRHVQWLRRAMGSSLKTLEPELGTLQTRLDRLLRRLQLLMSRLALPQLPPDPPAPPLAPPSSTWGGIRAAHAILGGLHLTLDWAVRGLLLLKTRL

rat IL-11 [4] = target: T4, rat IL-11 (rat, UniProt Q99MF5 22-199); assay: cell-based or functional assay
T4 sequence: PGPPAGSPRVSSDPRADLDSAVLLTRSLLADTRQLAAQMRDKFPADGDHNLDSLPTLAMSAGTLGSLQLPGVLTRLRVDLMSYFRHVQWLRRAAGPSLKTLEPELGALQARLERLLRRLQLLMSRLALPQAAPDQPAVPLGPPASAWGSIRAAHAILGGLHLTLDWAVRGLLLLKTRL

murine IL-11 [5] = target: T2, murine IL-11; assay: SPR (Biacore), 37 C, antibody captured via anti-Fc, IL-11 as analyte
Description: (§1) To assess the binding kinetics and affinity of anti-IL-11 bispecific antibodies as well as their species cross-reactivity profile, binding assays were conducted using surface plasmon resonance (SPR). […] Antibodies were captured either via anti-human Fc IgGs (“Human antibody capture kit”, Order No. BR100839, Cytiva) or via anti-mouse Fc IgGs (“Mouse antibody capture kit, Order No. BR100383, Cytiva) covalently amine coupled to a Series S CM5 sensor chip (Cytiva) depending on the isotype. The amine coupling was carried out according to the manufacturer's instructions using 1-ethyl-3-(3-dimethylaminopropyl) carbodiimide hydrochloride (EDC), N-hydroxysuccinimide (NHS) and ethanolamine HCl, pH 8.5 (“Amine Coupling Kit” BR-1000-50, Cytiva.). Human, mouse, cynomolgus or rat IL-11 was used as analyte at several dilutions within the concentration range from 0.05-200 nM. For binding assays with only one concentration 200 nM IL-11 was used. The sensor surface was regenerated with glycine pH 1.7 after each antigen injection. Obtained sensorgrams were double referenced (subtraction of reference flow cell signal and buffer injection) and were fitted to a 1:1 Langmuir binding model to derive kinetic data using the Biacore T200 Evaluation software or the Biacore Insight software.
(§2) If no value is reported, there was either no binding or very low binding and multiphasic binding behavior.

cynomolgus IL-11 [6] = target: T3, cynomolgus IL-11; assay: as above
Description: as §1, §2

rat IL-11 [7] = target: T4, rat IL-11; assay: as above
Description: as §1, §2

murine IL-11 [8] = target: T2, murine IL-11; assay: Tri-complex ELISA, mIL-11 + mIL-11Ra-Fc + mgp130-Fc, inhibition of complex formation
Description: In a first step, 25 μl of goat anti human IgG (Sigma, #12136), diluted 1:1000 in coating buffer (Candor, #121125) was coated on the plate at 4° C. overnight. Next day, the plate was washed one time with 50 μl PBST and then blocked with 50 μl SmartBlock (Candor, #113125) for one hour at room temperature (RT). […] After three additional washes of the coated and blocked microtiter plate with PBS-T, 25 μl of each mixture were added and the assay plate was incubated for one hour at room temperature. After three additional washes, anti-mouse-gp130 biotinylated antibody (R&D, #BAF468) or anti-human gp130 biotinylated antibody (R&D, #BAF228), both 1:1000 in 10% SmartBlock PBS-T, was added and incubated for 1 hour at RT. After three additional washes, a Streptavidin-Peroxidase conjugate (Sigma, #S5512) 1:1000 in SmartBlock PBS-T was added and incubated for one hour at room temperature. After a final three washes, AmplexRed (Fisher Scientific, A12222), 1/1000 in PBS, 0,003% H₂O₂, was added as substrate and incubated for 15 min at RT in the dark. Then, the fluorescence was measured with a plate reader at 535/595 nm. Signals from dose responses were used to calculate IC50 values using GraphPad Prism software. Efficacy was calculated as [(signal measured at lowest antibody concentration−signal measured at the highest antibody concentration)×100] divided by (signal measured at lowest antibody concentration−signal measured in the absence of antibody at an IL11 concentration of 8.2E-11 [M]).
IgG converted antibodies were subjected to the experimental assay procedure described in Example 19 and IC50 [M], respectively efficacy (%) were calculated accordingly.

human IL-11 [9] = target: T1, human IL-11; assay: SPR (Biacore), 37 C, antibody captured via anti-Fc, IL-11 as analyte
Description: as §1, §2

Binder | Efficacy (%), Stat3 reporter gene assay (human IL-11 [1]) | IC50, Stat3 reporter gene assay (human IL-11 [1]) | Efficacy (%), Stat3 reporter gene assay (murine IL-11 [2]) | IC50, Stat3 reporter gene assay (murine IL-11 [2]) | Efficacy (%), Stat3 reporter gene assay (cynomolgus IL-11 [3]) | IC50, Stat3 reporter gene assay (cynomolgus IL-11 [3]) | Efficacy (%), Stat3 reporter gene assay (rat IL-11 [4]) | IC50, Stat3 reporter gene assay (rat IL-11 [4]) | Kd (murine IL-11 [5]) | Kd (cynomolgus IL-11 [6]) | Kd (rat IL-11 [7]) | Efficacy (%) (murine IL-11 [8]) | IC50 (murine IL-11 [8]) | Kd (human IL-11 [9])
TPP-18068 (antibody, mouse IgG1, mIgG1, Lambda) heavy: EVQLLESGGGLVQPGGSLRLSCAASGFTFSSYGMHWVRQAPGKGLEWVSVISYDGSYKYYADSVKGRFTISRDNSKNTLYLQMNSLRAEDTAVYYCAAGVPDYWGQGTLVTVSSAKTTPPSVYPLAPGSAAQTNSMVTLGCLVKGYFPEPVTVTWNSGSLSSGVHTFPAVLQSDLYTLSSSVTVPSSTWPSETVTCNVAHPASSTKVDKKIVPRDCGCKPCICTVPEVSSVFIFPPKPKDVLTITLTPKVTCVVVDISKDDPEVQFSWFVDDVEVHTAQTQPREEQFNSTFRSVSELPIMHQDWLNGKEFKCRVNSAAFPAPIEKTISKTKGRPKAPQVYTIPPPKEQMAKDKVSLTCMITDFFPEDITVEWQWNGQPAENYKNTQPIMDTDGSYFVYSKLNVQKSNWEAGNTFTCSVLHEGLHNHHTEKSLSHSPGK light: QSVLTQPPSASGTPGQRVTISCTGSSSNIGAGYDVHWYQQLPGTAPKLLIYSNNERPSGVPDRFSGSKSGTSASLAISGLRSEDEADYYCAAWDDSLNGPVFGGGTKLTVLGQPKSSPSVTLFPPSSEELETNKATLVCTITDFYPGVVTVDWKVDGTPVTQGMETTQPSKQSNNKYMASSYLTLTARAWERHSSYSCQVTHEGHTVEKSLSRADCS | 46.1% | 6.5 nM | 93.6% | 1.2 nM | 70% | 4.1 nM | 94% | 1.8 nM | 0.41 nM | 5 nM | 0.58 nM | 84.9% | 3.9 nM | 
TPP-18087 (antibody, mouse IgG1, V domains shown, mIgG1, Lambda) VH: EVQLLESGGGLVQPGGSLRLSCAASGFTFSHYDMNWLRQAPGKGLEWVGVISYDGSNKFYADFVKGRFTISRDNSKNTLYLQMNSLRAEDTAVYYCARTPGSHFDYWGQGTLVTVSS VL: QSVLTQPPSASGTPGQRVTISCSGSSSNIGNNAVNWYQQLPGTAPKLLIYYDDLLPSGVPDRFSGSKSGTSASLAISGLRSEDEADYYCSAWDDSLNGVVFGGGTKLTVLG | 47.8% |  | 59.4% | 16 nM | 47.7% |  | 31.8% |  | 41 nM |  |  |  | 33 nM | 
TPP-29603 (bispecific antibody, IgG1, scFv-kih-mIgG1; bispecific comprising CDRs of TPP-29528 and TPP-29519) chain 1: QVQLVESGGGVVQPGRSLRLSCAASGFTFSHYDMHWVRQAPGKGLEWVAVISYHGSVKFYADSVKGRFTISRDNSKNTLYLQMNSLRAEDTAVYYCARTPGFHFDYWGQGTLVTVSSGGGGSGGGGSGGGGSQSVLTQPPSASGTPGQRVTISCSGSSSNIGSNYVSWYQQLPGTAPKLLIYYDDLRPSGVPDRFSGSKSGTSASLAISGLRSEDEADYYCSAWDDSLSGVVFGGGTKLTVLGGGGSGGGGSGGGGSGVECPPCPAPPVAGPSVFIFPPKPKDVLTITLTPKVTCVVVDISKDDPEVQFSWFVDDVEVHTAQTQPREEQFNSTFRSVSELPIMHQDWLNGKEFKCRVNSAAFPAPIEKTISKTKGRPKAPQVYTIPPCKEQMAKDKVSLWCMITDFFPEDITVEWQWNGQPAENYKNTQPIMDTDGSYFVYSKLNVQKSNWEAGNTFTCSVLHEGLHNHHTEKSLSHSPGK chain 2: EVQLLESGGGLVQPGGSLRLSCAASGFTFSSYGMHWVRQAPGKGLEWVAVISYDGSYKYYADSVKGRFTISRDNSKNTLYLQMNSLRAEDTAVYYCAAGVPDYWGQGTLVTVSSGGGGSGGGGSGGGGSQSVLTQPPSASGTPGQRVTISCSGSSSNIGSDYDVHWYQQLPGTAPKLLIYSNEERPSGVPDRFSGSKSGTSASLAISGLRSEDEADYYCSAWDSSLSGPVFGGGTKLTVLGGGGSGGGGSGGGGSGVECPPCPAPPVAGPSVFIFPPKPKDVLTITLTPKVTCVVVDISKDDPEVQFSWFVDDVEVHTAQTQPREEQFNSTFRSVSELPIMHQDWLNGKEFKCRVNSAAFPAPIEKTISKTKGRPKAPQVCTIPPPKEQMAKDKVSLSCAITDFFPEDITVEWQWNGQPAENYKNTQPIMDTDGSYFVVSKLNVQKSNWEAGNTFTCSVLHEGLHNHHTEKSLSHSPGK | 101% | 4.1 nM | 102% | 2 nM | 101% | 1.7 nM | 99.9% | 2 nM | 0.0017 nM | 0.0022 nM | 0.0034 nM |  |  | 0.0019 nM
TPP-29697 (bispecific antibody, IgG1, scFv-kih-hIgG1 with Fc-silencing mutations; bispecific comprising CDRs of TPP-29528 and TPP-29519) chain 1: QVQLVESGGGVVQPGRSLRLSCAASGFTFSHYDMHWVRQAPGKGLEWVAVISYHGSVKFYADSVKGRFTISRDNSKNTLYLQMNSLRAEDTAVYYCARTPGFHFDYWGQGTLVTVSSGGGGSGGGGSGGGGSQSVLTQPPSASGTPGQRVTISCSGSSSNIGSNYVSWYQQLPGTAPKLLIYYDDLRPSGVPDRFSGSKSGTSASLAISGLRSEDEADYYCSAWDDSLSGVVFGGGTKLTVLGGGGSGGGGSGGGGSGVECPPCPAPPVAGPSVFLFPPKPKDTLMISRTPEVTCVVVGVSHEDPEVKFNWYVDGVEVHNAKTKPREEQYNSTYRVVSVLTVLHQDWLNGKEYKCKVSNKQLPSPIEKTISKAKGQPREPQVYTLPPCRDELTKNQVSLWCLVKGFYPSDIAVEWESNGQPENNYKTTPPVLDSDGSFFLYSKLTVDKSRWQQGNVFSCSVMHEALHNHYTQKSLSLSPGK chain 2: EVQLLESGGGLVQPGGSLRLSCAASGFTFSSYGMHWVRQAPGKGLEWVAVISYDGSYKYYADSVKGRFTISRDNSKNTLYLQMNSLRAEDTAVYYCAAGVPDYWGQGTLVTVSSGGGGSGGGGSGGGGSQSVLTQPPSASGTPGQRVTISCSGSSSNIGSDYDVHWYQQLPGTAPKLLIYSNEERPSGVPDRFSGSKSGTSASLAISGLRSEDEADYYCSAWDSSLSGPVFGGGTKLTVLGGGGSGGGGSGGGGSGVECPPCPAPPVAGPSVFLFPPKPKDTLMISRTPEVTCVVVGVSHEDPEVKFNWYVDGVEVHNAKTKPREEQYNSTYRVVSVLTVLHQDWLNGKEYKCKVSNKQLPSPIEKTISKAKGQPREPQVCTLPPSRDELTKNQVSLSCAVKGFYPSDIAVEWESNGQPENNYKTTPPVLDSDGSFFLVSKLTVDKSRWQQGNVFSCSVMHEALHNHYTQKSLSLSPGK | 99.1% | 2 nM | 99.6% | 1.4 nM | 100% | 0.75 nM | 97.6% | ~1.2 nM | < 0.001 nM | < 0.001 nM | < 0.001 nM |  |  | < 0.001 nM
